From the DeepSol protein solubility set come the findings set out here.

A short description of the data set: soluble on expression in E. coli; label from the status in PepcDB or PDB records.
As to “GMAEAKSRVGRPSGDTQNRDKLILAARNLFIERPYAQVSIREIASLAGTDPGLIRYYFGSKEKLFSTMIHETAMPVLAQLHKARRETRQESPAALLQTYYSVMSKHPHFPRLMLRIAGLDQSLPENAEVTKAFYEVVNFENIAIFQRLKDKNLLKDDVDAHCAQLSFFAMMVFPFIVPENLLERVGIELTPDFLQLLAEQNTRLLQRGLMDVKDERDE”, the “soluble on expression in E. coli” value is recorded as “soluble”.
For “GMATLGANASLYSEQHRITYYECDRTGRATLTTLIDIAVLASEDQSDALGLTTEMVQSHGVGWVVTQYAIDITRMPRQDEVVTIAVRGSAYNPYFAYREFWIRDADGQQLAYITSIWVMMSQTTRRIVKILPELVAPYQSEVVKRIPRLPRPISFEATDTTITKPYHVRFFDIDPNRHVNNAHYFDWLVDTLPATFLLQHDLVHVDVRYENEVKYGQTVTAHANILPSEVADQVTTSHLIEVDDEKCCEVTIQWRTLPEPIQ”, the “soluble on expression in E. coli” value is recorded as “soluble”.
In the case of “GMDKLNEYRTKVRQLLTKHLQYKPSYGDVEVEQIFDEEHDHYQIISVGWNNQHRIYGPIMHLDIKNNKIWIQQNTTEADIALELMEMGIDKQDIVIGFHTPKMRQLSGFAVE” it was “soluble”; in that of “GMEAKLSSIEIPVGQDELSGTLLTPTGMPGVLFVHGWGGSQHHSLVRAREAVGLGCICMTFDLRGHEGYASMRQSVTRAQNLDDIKAAYDQLASLPYVDAHSIAVVGLSYGGYLSALLTRERPVEWLALRSPALYKDAHWDQPKVSLNADPDLMDYRRRALAPGDNLALAACAQYKGDVLLVEAENDVIVPHPVMRNYADAFTNARSLTSRVIAGADHALSVKEHQQEYTRALIDWLTEMVVGRRIALAKEVVAARKQLLKEQQGDAVSLPGQGSREFRGDIRAVEKTSA”, “soluble”.
“GMEMTKVTGKFDVKLTPENAYATGVGGVNLGRMALDKTFYGELEARSQGEMLSAMTAVKGSAGYVAIEQVVGKLCGRQGSFVLQHFGIMTDGQNRLHLEVVPHSGAGELTGLYGTMAISIENGQHFYEFSFCFEPASEVEG”: the “soluble on expression in E. coli” value was “soluble”.
With “GMISDSISKRRSIRKYKNQSISHETIEKIIEAGINAPSSKNRQPWRFVVITEKEKESMLKAMSKGIQNEINDNGLLPGSRQHIAGANYTVEIMKQAPVTIFILNILGKSPLEKLSPEERFYEMANMQSIGAAIQNMSLTAVELGLGSLWICDVYFAYRELCEWLNTDSQLVAAISLGYPDEEPSRRPRLQLSDVTEWR”, the “soluble on expression in E. coli” value is on record as “soluble”.
For the sequence “GMKPIKEIADQLELKDDILYPYGHYIAKIDHRFLKSLENHEDGKLILVTAVTPTPAGEGKTTTSIGLSMSLNRIGKKSIVTLREPSLGPTLGLKGGATGGGRSRVLPSDEINLHFTGDMHAVASAHNLLAAVLDSHIKHGNELKIDITRVFWKRTMDMNDRALRSIVIGLGGSANGFPREDSFIITAASEVMAILALSENMKDLKERLGKIIVALDADRKIVRISDLGIQGAMAVLLKDAINPNLVQTTEGTPALIHCGPFANIAHGTNSIIATKMAMKLSEYTVTEAGFGADLGAEKFIDFVSRVGGFYPNAAVLVATVRALKYHGGANLKNIHEENLEALKEGFKNLRVHVENLRKFNLPVVVALNRFSTDTEKEIAYVVKECEKLGVRVAVSEVFKKGSEGGVELAKAVAEAAKDVEPAYLYEMNDPVEKKIEILAKEIYRAGRVEFSDTAKNALKFIKKHGFDELPVIVAKTPKSISHDPSLRGAPEGYTFVVSDLFVSAGAGFVVALSGDINLMPGLPKKPNALNMDVDDSGNIVGVS”, the “soluble on expression in E. coli” value is recorded as “soluble”.
In the case of “GMMVPHLTTALTGPLLTLEKRLLDNMPRIEHWFRSQWQEYGAPFYASVDLRNAGFKLAPVDTNLFPGGFNNLNPDFLPLCIQAAMVAVEKICPDARRLLLIPENHTRNTFYLRNVHALTHILRQAGLEVRIGSIAPEITAPTFLETHDGHSILLEPVRRKANRLELDNFDSCAILLNNDLSGGIPDILQGLEQSLIPPLHAGWATRRKSNHFTAYDRVVEEFAPLIDIDPWLLNPYFDTCGGLDFHARLGEEQLAEKVDSLLAKIRRKYAEYGVKQEPFVIVKADAGTYGMGIMTVKSADDVRDLNRKQRNKMSVVKEGLKVSEVILQEGVYTFEHLKDAVAEPVIYMMDHFVVGGFYRVHTSRGADENLNAPGMHFEPLTFETPCSTPDCAGAPDAAPNRFYAYGVVARLALLAATIELQETDPDLLDERT” it was “soluble”; in that of “GMNNIQAIRKKVETQIDDLQNKTDEIAEFNQAKVLDAFQENKVSDFHFHPSTGYGYDDEGRDTLERVYATVFKTEAALVRPQIISGTHAISTVLFGILRPDDELLYITGQPYDTLEEIVGIRKQGQGSLKDFHIGYSSVPLLENGDVDFPRIAKKMTPKTKMIGIQRSRGYADRPSFTIEKIKEMIVFVKNINPEVIVFVDNCYGEFVEYQEPPEVGADIIAGSLIKNPGGGLAKTGGYIAGKEALVDLCGYRLTTPGIGREAGASLYSLLEMYQGFFLAPHVTAQAIKGARFTAAMLAEFGVEADPVWDAPRTDLIQSVSFHNKEKMVAFAQAIQAASPVNAHVLPIGAYMPGYEDDVIMAAGTFIQGASLELTADGPIREPYQLYVQGGLTYEHIKIAVTRAIQKIV”, “soluble”; in that of “GMNRGKALQLVKPHLTEHRYQHTIGVMETAIDLAKLYGADQQKAELAAIFHDYAKFRDKNEMRTLIREKLSQQDILFYGDELLHAPCGAYYVREEVGIEDEDVLQAIRFHTTGRPNMSLLEKIIFLADYIEPNRQFPGVEKVRTQAKTDLNGAIISSLVNTITFLLKKNQPIYPDTLATYNQLLLEQK”, “soluble”.
In the case of “GMPALITYRTTVQEDWVDYNGHLRDAFYLLIFSYATDALMDRIGLDADSRGQSGNSLFTLEAHINYLHEVKLGTEVWVQTQILGFDRKRLHVYHSLHRAGFDEVLAASEQMLLHVDLAGPQSAPFGHTTVCRLNHLVEQQEGAQAPQYMGRTIKLPA” it was “soluble”; in that of “GMPAPLRFSSDKPLLLLIDMQQAVDDPSWGPRNHPQAEQACAGLLQAWRARGLPLIHIRHDSVEPNSTYRPGQPGHAFKPEVEPRPGETVIAKQTNSAFIGTGLEALLRANGWLELVVAGVSTSNSVEATVRMAGNLGFAVCLAEDGCFTFDKTDWHGRRRSADEVHAMSLANLDGEYCRVCGSADILAALGNIAGAA”, “soluble”.
In the case of “GMREEKIREALNAHWQASAAGDFDAEHDIYDDDAICDYPQSGERILGRMNLQALRSHHPGKPAGFEVRRIQGEGNLWITEYSISYNGRPAYTVSIMEFRNGKVVHETQYFSDPFEAPGWRSQWVQQIG” it was “soluble”; in that of “GMSAGQSSLSFAHGDETHPIEQKAFIGVDSAAGNVVKQFHAALQMGNEAIVRQSLAANVQIYEGGKVERSLTEYANHHMLADMAYLKGLTITPKEHQITITGDIAISTSISHAQGEYKGKSIDSMTMETLVLIKQADGRWKITHVHWS”, “soluble”.
As for “GMSLIEIRKRTLIVETTYHENGPAPAQPLKLAASCAVIRNPYAGRYEPDLMPFMAELRSLGTLLATELVDTLGKDNIEVYSKAAIVGVDGEMEHGAVWHEAGGWAMRSVLGEPKAMVPAVKAVATAGYRMMVPVHYIHASYVRSHFNSIEIGIQDAPRPREILFALVMGTGARVHARLGGLTKEAVSVHDGQR”, the “soluble on expression in E. coli” value was “soluble”.
In the case of “GMSTDTCIKRPTRSELVDRFQKKIRAGEPIIGGGAGTGLSAKSEEAGDIDLIVIYNSGRYRMAGRGSLAGLLAYGNANQIVVDMAREVLPVVRHTPVLAGVNGTDPFMVMSTFLRELKEIGFAGVQNFPTVGLIDGLFRQNLEETGMSYAQEVEMIAEAHKLDLLTTPYVFSPEDAVAMAKAGADILVCHMGLTTGGAIGARSGKSMDDCVSLINECIEAARTIRDDIIILSHGGPIANPEDARFILDSCQGCHGFYGASSMERLPAEEAIRSQTLAFKAIRRQPA” it was “soluble”.
In the case of “GMTFRDTSAIASWHAHVYFDASSRDAAWTLREQIEAHWSGKLQLGRFHERPVGPHPMWSYQLAFTQEQFADLVGWLTLNHGALDIFLHPNTGDALRDHRDAAVWIGHSHELVLSALN” it was “soluble”; in that of “GMWWYSSIKYSADKVLLDTTRMYYYFINRTPRMEIGRMIAVLSGSFEFSKQYNKEIQERETDDYEVPRLMKQIAGVNDKGKEQPLSQPYALKSRVLLHAYLSRLPLESQNDALEEDQSYIITRILRFVEEMVNCSQNLMNYSQHTKISIETFDNLLKLQPMFVQALWQKNSPLLQLPHITDYNLQHLRKKRVFSCHDLAVMDAETRRSVLRSLSNEEYRDVMVVLSMMPRLQIETKTVVEGEDDKHELTAGCVVTLKVTMRRSRLIDPQEAGLADQYKKYAEDGGDDELEASEAPEEAAATVEEEEVKKRKPWEKNKPKQKKKKAQGQGQKKFVKKNAPASPDTEKALKEE”, “not soluble”; in that of “GPGSMAEAQARKRTESLSKMYSKTPISEGYALWDREYLLAAMRVFTFKAEGAPPFVLAPYLDSVAEITLQMHDLEDAAEQFAIAAGKYQLIDQKVLADLMRFKVTEVSSSAEIALEQVQAYLAAQDPQANGSGENSTVQTKSAFARVYAYLADLLLRSVDEEQASEAVLAQALTAAELAVQLGWDRDHCGWLLVGDVHAASGNYEKAKEAYGKALQRCPHYAKALERQIGVVQQLVRAADECGDDAGKATLNTELLTLLSRSIEVHPLANTFREKAFLLSEMHGDDAALAFVAETLEHPPQEEIEVIGSSAKEMTSTLLKAKAAILADGNQLDAALEAATKALEVDPNDEEAKSIIRDLHESMAA”, “soluble”.
In the case of “GPGSMAKKEVVWLGTPTEADGSELSSPFTSRIGGSAVLFREAPTYSIFNCPKCRSSRWVSLLTQIYAPLDVYDRIVYVLICSSCSEGKGSFCFAVRSQNFNPSYVQSSPAPVVGGGEDEGITFVEDGDWGDDDPKYVDEGPNEVCITNLTCTTMADECKVGSPTQSTDVSSVLVPHGTKVPVEGFCYPCFVLNIFEEPPKPKLCYGTVPDQLLKAQQTYGEDAVETTVVEDEDEPLAEKLLRKYVDRIGRVPSQCVRWGPGQKPLRSSPAPIVIPRCPRCSNERRYELQLTSPIIYFLTKGKEEKDHSLHFGSVLVYTCGGNCNVQPYSLEHCVVEDEV” it was “not soluble”; in that of “GPGSMASSSTADDHSAVAGIVASSASVCGSRDAAASPPTALPKLGSAKQQRTERAFLFDRYPSRKIALRLAYHGHVHDGLAKQKETDNTVEGLVCDALRRLRLIPEDGPHNFGRCGRTDKGVSALGNAFSLTARASCTGDAEPQLPPLDYCSMLNNVLPSTIRIVGCALVDDAFDARFSCVHRTYRYYFFHRGLNLAAMQEAAAFFLGTHNFRNFCKMDVVNVSNFVRTVFSVGLHPSEALPELISYLEIRANSFLYHQIRCIMEVLFLVGRGLEVPSVVQTLLELGDRKPTYPLADGTPLILWDCGFDNVQWQMSHCAFHAMEQELQDIGTALLIRATSATAMRSQLFRWYTGTADVFRKDTSEKDASGEDRSRAVVRRDPELRRLDGWSITGCDWTDPGTAGQMKARKRDLLYYLRTEAKNGQPLPTTTSCEEKTSQTAETIASGALAPVNYVPLLQRETERTYEEEVRELSGKKRARYEVNEAKKAAAAAAHKEVVSED”, “not soluble”; in that of “GPGSMDDKQAFFVRCIDGKTFKMVIRGDLGKLTVGKIRRYLKSYGVQDGMQLLFNGLSLADEQVGSDFGLCNGATLHLGPPSFSEPAVPQRTHGQGFSDEAAGSRTGDPTDTPHSSLSGDSRERNSKADSTHRDPCGGLSHADPARGTATYSGGRYNVDKGIPVTATSATKTNIDRIPSADLTSHSGFPVALEVENQQLREQVELLRREVADLRQKNKAPRATVLRQDLTSIEVLQSAKSNLQELAEELGVPLQFDTNFTCVVGDDESHTVLVTFDCVTERLYIYSTLLTQIPHDGEVRAKLYELLLEGSLLSREVCGGGIGISPQNGLVLLSTTIPLRHCNSSALKDIMPVFVETVARWRSLINELLN”, “soluble”.
